The results in this text go back to US10253076B2, “Peptides and combination of peptides for use in immunotherapy against ovarian cancer and other cancers” (immatics biotechnologies GmbH, priority 2015, dated 2019).

This assay addresses HLA-A*02:01 (Homo sapiens, UniProt P04439, D140Y/D185E/D98H/E176V/E277Q/G131W/G231S/I119V/I121R/I166T/I218V/L300P/L318F/N151K/N90K/P208A/P217A/Q86G/Q94H/R138H/R169H/T345S). Briefly: MHC binding assay (UV-ligand exchange, beta2m ELISA, peptide exchange yield). Conditions: binding of HLA-class I restricted peptides to HLA-A*02:01, ranged by peptide exchange yield (UV-ligand exchange, β2m ELISA). The gist of the method:
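Peptide–HLA-A*02:01 complexes made by UV-mediated exchange of a photocleavable peptide with the test peptide. Exchange products diluted 100-fold on streptavidin-coated plates, 1 h at 37°C, then HRP anti-β2m 1 h at 37°C; TMB read at 450 nm to give exchange yield.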
(In general: ELISA stands for enzyme-linked immunosorbent assay.)

Consider “308 (SQYSGQLHEV; listed as Homo sapiens) [compound 308]”, for which the Peptide exchange entry was “″+++″ (≥50% = +++)”.
For the substance “464 (ALNDCIYSV; listed as Homo sapiens) [compound 464]”, the Peptide exchange entry is reported as “″+++″ (≥50% = +++)”.
“456 (LLIGHLERV; listed as Homo sapiens) [compound 456]”: the Peptide exchange result was “″+++″ (≥50% = +++)”.
The entry for “107 (FLQPVDDTQHL; listed as Homo sapiens) [compound 107]” is “″+++″ (≥50% = +++)”.
For “196 (YLYSVEIKL; listed as Homo sapiens) [compound 196]” the value was “″++++″ (≥75% = ++++)”; for “78 (SLFSSLEPQIQPV; listed as Homo sapiens) [compound 78]”, “″+++″ (≥50% = +++)”.
On to “537 (TLAPGEVLRSV; listed as Homo sapiens) [compound 537]”, for which the Peptide exchange entry is “″+++″ (≥50% = +++)”.
As to “508 (ILAQEQLVVGV; listed as Homo sapiens) [compound 508]”, the Peptide exchange entry is recorded as “″+++″ (≥50% = +++)”.
The entry for “495 (FIFSEKPVFV; listed as Homo sapiens) [compound 495]” is “″+++″ (≥50% = +++)”.
For “318 (GLINTGVLSV; listed as Homo sapiens) [compound 318]” the value was “″++″ (≥20% = ++)”; for “172 (VLYSYTIITV; listed as Homo sapiens) [compound 172]”, “″++″ (≥20% = ++)”.
For the substance “183 (FGLDLVTEL; listed as Homo sapiens) [compound 183]”, the Peptide exchange entry was “″+++″ (≥50% = +++)”.
“562 (YLEELPEKLKL; listed as Homo sapiens) [compound 562]”: the Peptide exchange entry is listed as “″+++″ (≥50% = +++)”.
The entry for “216 (NLWEDPYYL; listed as Homo sapiens) [compound 216]” is “″+++″ (≥50% = +++)”; for “524 (ALIENLTHQI; listed as Homo sapiens) [compound 524]” it is “″++″ (≥20% = ++)”; for “89 (YILPTETIYV; listed as Homo sapiens) [compound 89]” it is “″++++″ (≥75% = ++++)”.
Take “538 (LLLAHIIAL; listed as Homo sapiens) [compound 538]”: the Peptide exchange entry is listed as “″++″ (≥20% = ++)”.
Turning to “604 (SILDRDDIFV; listed as Homo sapiens) [compound 604]”, the Peptide exchange entry is listed as “″+++″ (≥50% = +++)”.
For “564 (TVTNAVVTV; listed as Homo sapiens) [compound 564]”, the Peptide exchange entry was “″+++″ (≥50% = +++)”.
For “359 (YLLPESVDL; listed as Homo sapiens) [compound 359]” the value was “″+++″ (≥50% = +++)”.
For “614 (LLLPDQPPYHL; listed as Homo sapiens) [compound 614]” the value was “″+++″ (≥50% = +++)”; for “6 (VLVSDGVHSV; listed as Homo sapiens) [compound 6]”, “″+++″ (≥50% = +++)”.
For “273 (NLFQSVREV; listed as Homo sapiens) [compound 273]” the value was “″++″ (≥20% = ++)”; for “498 (KLWTGGLDNTV; listed as Homo sapiens) [compound 498]”, “″+++″ (≥50% = +++)”; for “523 (YQIPRTFTL; listed as Homo sapiens) [compound 523]”, “″++″ (≥20% = ++)”.
On to “466 (VLIANLEKL; listed as Homo sapiens) [compound 466]”, for which the Peptide exchange entry is recorded as “″++++″ (≥75% = ++++)”.
The entry for “266 (KITDTLIHL; listed as Homo sapiens) [compound 266]” is “″+++″ (≥50% = +++)”.
For “158 (KLFDVDEDGYI; listed as Homo sapiens) [compound 158]” the value was “″+++″ (≥50% = +++)”; for “331 (KVDTVWVNV; listed as Homo sapiens) [compound 331]”, “″+++″ (≥50% = +++)”; for “572 (ALADLIEKELSV; listed as Homo sapiens) [compound 572]”, “″+++″ (≥50% = +++)”.
For “104 (STMEQNFLL; listed as Homo sapiens) [compound 104]” the value was “″++++″ (≥75% = ++++)”; for “206 (VLQEGKLQKLAQL; listed as Homo sapiens) [compound 206]”, “″+++″ (≥50% = +++)”; for “154 (ALDDGTPAL; listed as Homo sapiens) [compound 154]”, “″++″ (≥20% = ++)”.
Take “42 (VLLQKIVSA; listed as Homo sapiens) [compound 42]”: the Peptide exchange entry was “″+++″ (≥50% = +++)”.
The entry for “284 (ILLSQTTGV; listed as Homo sapiens) [compound 284]” is “″+++″ (≥50% = +++)”; for “381 (FIDEAYVEV; listed as Homo sapiens) [compound 381]” it is “″++″ (≥20% = ++)”; for “473 (AMATESILHFA; listed as Homo sapiens) [compound 473]” it is “″+++″ (≥50% = +++)”.
For “57 (TLAELQPPVQL; listed as Homo sapiens) [compound 57]” the value was “″+++″ (≥50% = +++)”; for “117 (ILPDGEDFLAV; listed as Homo sapiens) [compound 117]”, “″+++″ (≥50% = +++)”; for “179 (KVLNELYTV; listed as Homo sapiens) [compound 179]”, “″+++″ (≥50% = +++)”.
For “480 (ALLEDSCHYL; listed as Homo sapiens) [compound 480]” the value was “″+++″ (≥50% = +++)”; for “61 (FLQGYQLHL; listed as Homo sapiens) [compound 61]”, “″++++″ (≥75% = ++++)”.
“442 (GLLGGGGVLGV; listed as Homo sapiens) [compound 442]”: the Peptide exchange entry is “″+++″ (≥50% = +++)”.
“467 (FLAKDFNFL; listed as Homo sapiens) [compound 467]”: the Peptide exchange result is “″+++″ (≥50% = +++)”.
For “19 (FMVDNEAIYDI; listed as Homo sapiens) [compound 19]” the value was “″++++″ (≥75% = ++++)”; for “364 (LLQNEQFEL; listed as Homo sapiens) [compound 364]”, “″+++″ (≥50% = +++)”; for “392 (ALLHPQGFEV; listed as Homo sapiens) [compound 392]”, “″++″ (≥20% = ++)”.
Turning to “492 (SLFDGFADGLGV; listed as Homo sapiens) [compound 492]”, the Peptide exchange entry is listed as “″+++″ (≥50% = +++)”.
The entry for “71 (GILARIASV; listed as Homo sapiens) [compound 71]” is “″+++″ (≥50% = +++)”.
“635 (SLDSTLHAV; listed as Homo sapiens) [compound 635]”: the Peptide exchange entry is “″+++″ (≥50% = +++)”.
Consider “446 (QLIPALAKV; listed as Homo sapiens) [compound 446]”, for which the Peptide exchange result is “″+++″ (≥50% = +++)”.
The entry for “128 (YLFDDPLSAV; listed as Homo sapiens) [compound 128]” is “″++″ (≥20% = ++)”; for “350 (ALLDVTHSELTV; listed as Homo sapiens) [compound 350]” it is “″+++″ (≥50% = +++)”.
